According to patent publication US20230226223A1 (SOLA BIOSCIENCES, published 2023):
Changes are numbered by the printed parent chain. Numbers in names are those of the source. Where two headings read alike, the source gives them in different places.

B1: Construct 3, QBP1-JB1 (designed binder)
chain: MGKPIPNPLLGLDSTGTGSSNWKWWPGIFDEFMGKDYYQTLGLARGASDEEIKRAYRRQALRYHPDKNKEPGAEEKFKEIAEAYDVLSDPRKREIFDRYGEEGLKGSDIAAALE
B2: Construct 53, Flag-QBP1-JB1-QBP1-Flag (designed binder)
chain: MDYKDDDDKGGTGSSNWKWWPGIFDEFMGKDYYQTLGLARGASDEEIKRAYRRQALRYHPDKNKEPGAEEKFKEIAEAYDVLSDPRKREIFDRYGEEGLKGSGGGGSGGGGSGGGGSGGGGSAAASNWKWWPGIFDLESRGDYKDDDDK
B3: Construct 6, QBP1-JB1-QBP1 (designed binder)
chain: MGKPIPNPLLGLDSTGTGSSNWKWWPGIFDEFMGKDYYQTLGLARGASDEEIKRAYRRQALRYHPDKNKEPGAEEKFKEIAEAYDVLSDPRKREIFDRYGEEGLKGSDIGGGGSGGGGSGGGGSGGGGSAAASNWKWWPGIFDGLE
B4: Construct 57, JB1-QBP1-JB1-QBP1 (designed binder)
chain: MGKDYYQTLGLARGASDEEIKRAYRRQALRYHPDKNKEPGAEEKFKEIAEAYDVLSDPRKREIFDRYGEEGLKGSGSSNWKWWPGIFDEFMGKDYYQTLGLARGASDEEIKRAYRRQALRYHPDKNKEPGAEEKFKEIAEAYDVLSDPRKREIFDRYGEEGLKGSGGGGSGGGGSGGGGSGGGGSAAASNWKWWPGIFDLESRGDYKDDDDK
B5: Construct 49, JB1-QBP1-QBP1 (16) (designed binder)
chain: MGKDYYQTLGLARGASDEEIKRAYRRQALRYHPDKNKEPGAEEKFKEIAEAYDVLSDPRKREIFDRYGEEGLKGSGGGGSGGGGSGGGGSGGGGSAAASNWKWWPGIFDLEGGGGSSRAAASNWKWWPGIFDLE
B6: Construct 50, JB1-QBP1-QBP1 (17) (designed binder)
chain: B5 chain with G112E, G113A, G114A, G115A, S116K
B7: Construct 45, JB1-QBP1-QBP1 (12) (designed binder)
chain: MGKDYYQTLGLARGASDEEIKRAYRRQALRYHPDKNKEPGAEEKFKEIAEAYDVLSDPRKREIFDRYGEEGLKGSGGGGSSNWKWWPGIFDGGGGSGGGGSSNWKWWPGIFDLE
B8: Construct 46, JB1-QBP1-QBP1 (13) (designed binder)
chain: B7 chain with G92E, G93A, G94A, G95A, S96K, G97E, G98A, G99A, G100A, S101K
B9: Construct 47, JB1-QBP1-QBP1 (14) (designed binder)
chain: B7 chain with G76E, G77A, G78A, G79A, S80K
B10: Construct 2, JB1-QBP1 (designed binder)
chain: MGKDYYQTLGLARGASDEEIKRAYRRQALRYHPDKNKEPGAEEKFKEIAEAYDVLSDPRKREIFDRYGEEGLKGSDIGGGGSGGGGSGGGGSGGGGSAAASNWKWWPGIFDGLE
B11: Construct 9, JB1(20-31)-2XQBP1 (designed binder)
chain: MGTGSEFIKRAYRRQALRYDIGGGGSGGGGSGGGGSGGGGSAAASNWKWWPGIFDGLESNWKWWPGIFD
B12: Construct 37, JB1-QBP1-QBP1 (4) (designed binder)
chain: MGKDYYQTLGLARGASDEEIKRAYRRQALRYHPDKNKEPGAEEKFKEIAEAYDVLSDPRKREIFDRYGEEGLKGSGGGGSSNWKWWPGIFDEAAAKSNWKWWPGIFDLE
B13: Construct 38, JB1-QBP1-QBP1 (5) (designed binder)
chain: B12 chain with E92G, A93G, A94G, A95G, K96S
B14: Construct 39, JB1-QBP1-QBP1 (6) (designed binder)
chain: B12 chain with G76E, G77A, G78A, G79A, S80K
B15: Construct 40, JB1-QBP1-QBP1 (7) (designed binder)
chain: B12 chain with G76E, G77A, G78A, G79A, S80K, E92G, A93G, A94G, A95G, K96S
B16: Construct 51, JB1-QBP1-QBP1 (18) (designed binder)
chain: MGKDYYQTLGLARGASDEEIKRAYRRQALRYHPDKNKEPGAEEKFKEIAEAYDVLSDPRKREIFDRYGEEGLKGSEAAAKSNWKWWPGIFDLEGGGGSSNWKWWPGIFDLE
B17: Construct 52, JB1-QBP1-QBP1 (19) (designed binder)
chain: B16 chain with E76G, A77G, A78G, A79G, K80S
B18: Construct 59, JB13-QBP1-QBP1 (designed binder)
chain: MGQDYYSVLGITRNSEDAQIKQAYRRLALKHHPLKSNEPSSAEIFRQIAEAYDVLSDPMKRGIYDKFGEEGLKGGDIGGGGSGGGGSGGGGSAAASNWKWWPGIFDLEGDYKDDDDKGSRAAASNWKWWPGIFDLE
B19: Construct 41, JB1-QBP1-QBP1 (8) (designed binder)
chain: MGKDYYQTLGLARGASDEEIKRAYRRQALRYHPDKNKEPGAEEKFKEIAEAYDVLSDPRKREIFDRYGEEGLKGSEAAAKSNWKWWPGIFDEAAAKSNWKWWPGIFD
B20: Construct 42, JB1-QBP1-QBP1 (9) (designed binder)
chain: B19 chain with E92G, A93G, A94G, A95G, K96S
B21: Construct 35, JB1-QBP1-QBP1 (2) (designed binder)
chain: MGKDYYQTLGLARGASDEEIKRAYRRQALRYHPDKNKEPGAEEKFKEIAEAYDVLSDPRKREIFDRYGEEGLKGSSNWKWWPGIFDEAAAKSNWKWWPGIFDLE
B22: Construct 36, JB1-QBP1-QBP1 (3) (designed binder)
chain: B21 chain with E87G, A88G, A89G, A90G, K91S
B23: Construct 12, JB1(1-57)-2XQBP1 (designed binder)
chain: MGKDYYQTLGLARGASDEEIKRAYRRQALRYHPDKNKEPGAEEKFKEIAEAYDVLSDDIGGGGSGGGGSGGGGSGGGGSAAASNWKWWPGIFDGLESNWKWWPGIFD
B24: Construct 10, JB1(19-43)-2XQBP1 (designed binder)
chain: MGTGSEFEIKRAYRRQALRYHPDKNKEPGAEEDIGGGGSGGGGSGGGGSGGGGSAAASNWKWWPGIFDGLESNWKWWPGIFD
B25: Construct 56, JB1-JB1-QBP1 (designed binder)
chain: MGKDYYQTLGLARGASDEEIKRAYRRQALRYHPDKNKEPGAEEKFKEIAEAYDVLSDPRKREIFDRYGEEGLKGSGSEFMGKDYYQTLGLARGASDEEIKRAYRRQALRYHPDKNKEPGAEEKFKEIAEAYDVLSDPRKREIFDRYGEEGLKGSGGGGSGGGGSGGGGSGGGGSAAASNWKWWPGIFDLESRGDYKDDDDK
B26: Construct 54, QBP1-JB1-QBP1 (1) (designed binder)
chain: MSNWKWWPGIFDGKDYYQTLGLARGASDEEIKRAYRRQALRYHPDKNKEPGAEEKFKEIAEAYDVLSDPRKREIFDRYGEEGLKGSSNWKWWPGIFDGDYKDDDDK
B27: Construct 55, QBP1-JB1-QBP1 (2) (designed binder)
chain: MSNWKWWPGIFDLEGKDYYQTLGLARGASDEEIKRAYRRQALRYHPDKNKEPGAEEKFKEIAEAYDVLSDPRKREIFDRYGEEGLKGSGGGSSNWKWWPGIFDLE
B28: Construct 61, JC7-QBP1-QBP1 (designed binder)
chain: MDYYKILGVDKNASEDEIKKAYRKRALMHHPDRHSGASAEVQKEEEKKFKEVGEAFTILSDPKKKTRYDSGQDIGGGGSGGGGSGGGGSAAASNWKWWPGIFDLEGDYKDDDDKGSRAAASNWKWWPGIFDLE
B29: Construct 7, QBP1-JB1-2XQBP1 (designed binder)
chain: MGKPIPNPLLGLDSTGTGSSNWKWWPGIFDEFMGKDYYQTLGLARGASDEEIKRAYRRQALRYHPDKNKEPGAEEKFKEIAEAYDVLSDPRKREIFDRYGEEGLKGSDIGGGGSGGGGSGGGGSGGGGSAAASNWKWWPGIFDGLESNWKWWPGIFD
B30: Construct 14, JB1(1-108)-2XQBP1 (designed binder)
chain: MGKDYYQTLGLARGASDEEIKRAYRRQALRYHPDKNKEPGAEEKFKEIAEAYDVLSDPRKREIFDRYGEEGLKGSGPSGGSGGGANGTSFSYTFHGDPHAMFAEFFGGDIGGGGSGGGGSGGGGSGGGGSAAASNWKWWPGIFDGLESNWKWWPGIFD
B31: Construct 1, JB1 (other)
chain: MGKDYYQTLGLARGASDEEIKRAYRRQALRYHPDKNKEPGAEEKFKEIAEAYDVLSDPRKREIFDRYGEEGLKGSDIAAALESRDYKDDDDK
B32: Construct 48, JB1-QBP1-QBP1 (15) (designed binder)
chain: MGKDYYQTLGLARGASDEEIKRAYRRQALRYHPDKNKEPGAEEKFKEIAEAYDVLSDPRKREIFDRYGEEGLKGSEAAAKSNWKWWPGIFDEAAAKEAAAKSNWKWWPGIFDLE
B33: Construct 43, JB1-QBP1-QBP1 (10) (designed binder)
chain: MGKDYYQTLGLARGASDEEIKRAYRRQALRYHPDKNKEPGAEEKFKEIAEAYDVLSDPRKREIFDRYGEEGLKGSSNWKWWPGIFDGGGGSGGGGSSNWKWWPGIFDLE
B34: Construct 44, JB1-QBP1-QBP1 (11) (designed binder)
chain: B33 chain with G87E, G88A, G89A, G90A, S91K, G92E, G93A, G94A, G95A, S96K
B35: Construct 8, JB1(P33Q)-2XQBP1 (designed binder)
chain: MGKDYYQTLGLARGASDEEIKRAYRRQALRYHQDKNKEPGAEEKFKEIAEAYDVLSDPRKREIFDRYGEEGLKGSDIGGGGSGGGGSGGGGSGGGGSAAASNWKWWPGIFDGLESNWKWWPGIFD
B36: Construct 5, JB1-3XQBP1 (designed binder)
chain: MGKDYYQTLGLARGASDEEIKRAYRRQALRYHPDKNKEPGAEEKFKEIAEAYDVLSDPRKREIFDRYGEEGLKGSGGGGSGGGGSGGGGSGGGGSGSSNWKWWPGIAAASNWKWWPGILESNWKWWPGIFD

Legend:
Assay in all cases: cell-based or functional assay
[1] = target: GFP-HTTQ74 reporter construct
[2] = target: GFP-HTTQ74 reporter construct; remark: listed apart in the source
[3] = target: GFP-HTTQ74 reporter construct; remark: listed apart in the source
[4] = target: GFP-HTTQ74 reporter construct; remark: listed apart in the source

Row | Binder | Reduction of Aggregation (%), filter trap assay [2] | further results
1 | B1 |  | % Aggregation (relative to Q74 alone), filter trap assay [1]: 67.5%
2 | B2 | 79.9% | 
3 | B3 |  | % Aggregation (relative to Q74 alone), filter trap assay [1]: 5.62%
4 | B4 | 94.1% | 
5 | B5 | 82.5% | 
6 | B6 | 90.9% | 
7 | B7 | 91.1% | 
8 | B8 | 100% | 
9 | B9 | 99.7% | 
10 | B10 |  | % Aggregation (relative to Q74 alone), filter trap assay [1]: 75.9%
11 | B11 |  | % Aggregation (relative to Q74 alone), filter trap assay [3]: 91%
12 | B12 | 97% | 
13 | B13 | 96.9% | 
14 | B14 | 98.1% | 
15 | B15 | 96% | 
16 | B16 | 96.5% | 
17 | B17 | 96.9% | 
18 | B18 |  | Reduction (%) of protein aggregation [4]: -27%

Row | Binder | Reduction of Aggregation (%), filter trap assay [2] | further results
19 | B19 | 91.1% | 
20 | B20 | 87% | 
21 | B21 | 97.9% | 
22 | B22 | 95.7% | 
23 | B23 |  | % Aggregation (relative to Q74 alone), filter trap assay [3]: 40.3%
24 | B24 |  | % Aggregation (relative to Q74 alone), filter trap assay [3]: 91%
25 | B25 | 68.5% | 
26 | B26 | 0% | 
27 | B27 | 9.45% | 
28 | B28 |  | Reduction (%) of protein aggregation [4]: 89%
29 | B29 |  | % Aggregation (relative to Q74 alone), filter trap assay [1]: 23%
30 | B30 |  | % Aggregation (relative to Q74 alone), filter trap assay [3]: 32%
31 | B31 |  | % Aggregation (relative to Q74 alone), filter trap assay [1]: 127%
32 | B32 | 100% | 
33 | B33 | 99.5% | 
34 | B34 | 99.6% | 
35 | B35 |  | % Aggregation (relative to Q74 alone), filter trap assay [3]: 93%
36 | B36 |  | % Aggregation (relative to Q74 alone), filter trap assay [1]: 41.1%
